# Results reported in article doi:10.64898/2025.12.08.693039.
# Tested on: LexA (Escherichia coli)
# Experiment: EMSA
# Settings: 0.5 nM DNA or nucleosome, 10 mM Tris-HCl pH 8.0, 130 mM NaCl, 10% glycerol, 0.0075% Tween-20, room temperature, 20 min; 5% native acrylamide gel in 0.3x TBE
substance,measurement,value
YNN1-LexO naked DNA,Kd,< 5 nM
